Target: Notch-1 (endogenous; p300 or p120 not told) (human (endogenous in HeLa and BxPC3)) (UniProt P46531)
Test: co-IP; HA-tagged c-Src wild type, Y416F or Y527F transiently transfected in HeLa; whole-cell lysate, IP with anti-Notch-1, blot with anti-HA and anti-Notch-1

fold reduction of binding against wild type c-Src: > 3 fold
Substance: HA-tagged c-Src Y416F (kinase dead) (enzyme)

Reference: publication PMC3316571
